Experiments:
Conditions in all cases: FMN input: 0 or 200 uM; Eterna round: R93 (includes R88 designs)
[1] = tested on: MS2 coat protein; test: apparent KD of MS2 coat protein, switch ON state; designed switch direction (-1 OFF switch, 1 ON switch): 1; higher = weaker reporter binding
How it was run: (§1)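 Each design's apparent KD comes from the median of binding-curve fits to its normalised clusters. Those clusters carried RNA switches transcribed on-chip from Illumina sequencing clusters. SNAP-549-labelled MS2 coat protein was titrated onto them in twofold steps (0.7 or 1.5 nM to 3 µM; per step 0.8–1.5 h down to 10–20 min). Conditions were 100 mM Tris-HCl pH 7.5, 80 mM KCl, 4 mM MgCl2, without or with constant ligand.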

[2] = tested on: MS2 coat protein; test: apparent KD of MS2 coat protein, switch OFF state (with FMN for OFF switches, without FMN for ON switches); designed switch direction (-1 OFF switch, 1 ON switch): 1; higher = weaker reporter binding
How it was run: as §1

[3] = tested on: MS2 coat protein; test: apparent KD of MS2 coat protein, switch OFF state (with FMN for OFF switches, without FMN for ON switches); designed switch direction (-1 OFF switch, 1 ON switch): -1; higher = weaker reporter binding
How it was run: as §1

[4] = tested on: MS2 coat protein; test: apparent KD of MS2 coat protein, switch ON state; designed switch direction (-1 OFF switch, 1 ON switch): -1; higher = weaker reporter binding
How it was run: as §1

AAAAAAAAGGGUGAGGAUAUCGAAAAAAAAACAUGAGGAUCACCCAUGUGAAAAAAAAAAAAAUGCGAGAAGGCACUAAAAAAAAA [Same State 2.3]
apparent KD of MS2 coat protein [1]: 23.2 nM
apparent KD of MS2 coat protein [2]: 104 nM

AAAAAACAUGAGGAUCACCCAUGUAAAAAAAACACAGGAUAUCCCUUUUUUAAAUGAAAAGGAGAAGGGUGAAAAA [Nob's Hobby 9 - Jieux - Same State 1]
apparent KD of MS2 coat protein [1]: 22.6 nM
apparent KD of MS2 coat protein [2]: 24 nM

AAAAAACAUGAGGAUCACCCAUGUAAAAAUAUGGGAGGAUAUGGAAACACGAAAGUGAAACCAGAAGGCUCAAAAG [77%, Mat - Mod of Eli, 17]
apparent KD of MS2 coat protein [1]: 21.2 nM
apparent KD of MS2 coat protein [2]: 78.4 nM

AAGAAACAUGAGGAUCACCCAUGUAAAUUUAAGAGAGGAUAUCGUACAUGGAAGAUUUAACGAGAAGGCUCUAGAA [Pariah 2 (MS2 Riboswitches - Same State 1)]
apparent KD of MS2 coat protein [2]: 36.9 nM

CUCAAGUGAGGAUAUAAAAGAAAAGAAGAGAAAGAAAAGAAUUAGAAGGCACAUGAGGAUCACCCAUGUAAGAA [EteRNA is fun!]
apparent KD of MS2 coat protein [3]: 25.5 nM
apparent KD of MS2 coat protein [4]: 39.4 nM

CUCAAGUGAGGAUAUCAGUAGUAAAAAAAUAAAAUUACUACUGAGAAGGCACAUGAGGAUCACCCAUGUGCAAA [EX4 336: Super Stable 36]
apparent KD of MS2 coat protein [3]: 17 nM
apparent KD of MS2 coat protein [4]: 19.6 nM

CUCAAGUGAGGAUAUUAAAGAAAAGAAGAGAAAGAAAAGAAUAAGAAGGCACAUGAGGAUCACCCAUGUAAGAA [EteRNA is fun!]
apparent KD of MS2 coat protein [3]: 33 nM
apparent KD of MS2 coat protein [4]: 26.4 nM

CUCAUGUCAGGAUAUCAGUAGUAAAAAAAUAAAAUUACUACUGAGAAGGGACAUGAGGAUCACCCAUGUAAAAA [EX4 363: Super Stable 63]
apparent KD of MS2 coat protein [3]: 23.2 nM
apparent KD of MS2 coat protein [4]: 16.1 nM

CUCAUGUUAGGAUAUUAAUGAAAUGAAGUGAAAGAAAAGAAUAAGAAGGAACAUGAGGAUCACCCAUGUUAGAA [EteRNA is fun!]
apparent KD of MS2 coat protein [3]: 25.2 nM
apparent KD of MS2 coat protein [4]: 69.3 nM

CUGGAGUCAGGAUAUACGAACAUGUCGCCAGAUGUCAAGGUACAUGAGGAUCACCCAUGUAGAAGGGAGGAGAA [salish99-Ex2-33]
apparent KD of MS2 coat protein [3]: 84.8 nM
apparent KD of MS2 coat protein [4]: 95.2 nM

CUUAUGUGAGGAUAUCAGUAGUAAAAAAAAAAAAUUACUACUGAGAAGGCACAUGAGGAUCACCCAUGUGCAUU [EX4 322: Super Stable 22]
apparent KD of MS2 coat protein [3]: 38.8 nM
apparent KD of MS2 coat protein [4]: 30.3 nM

GAAAACAGAGGAUAUACGAAAUUGACACGAAAAGUGCAGGGACAUGAGGAUCACCCAUGUAGAAGGCUGAAGAA [Meechl MS2... 60% 1]
apparent KD of MS2 coat protein [3]: 48.2 nM
apparent KD of MS2 coat protein [4]: 27.7 nM

GAAAAGGCAGGAUAUGCAGGAUAUAGAAGGAGGAUAUAGAGACAUGAGGAUCACCCAUGUAGAAGGGCCAAAAG [salish99-ex2-11]
apparent KD of MS2 coat protein [3]: 32.3 nM
apparent KD of MS2 coat protein [4]: 42.6 nM

GAAAAGUCAGGAUAUGCGAAGGCGUCUGAUAGACGAGGCUAGCAGAAGGGACAUGAGGAUCACCCAUGUGAAAG [Mat - Exclusion 4 - Eli mod - D87]
apparent KD of MS2 coat protein [3]: 128 nM
apparent KD of MS2 coat protein [4]: 54.6 nM

GAAAAGUCAGGAUAUGUACAAAAUAAAAUAAAAAUAAAAGUACAGAAGGGACAUGAGGAUCACCCAUGUAAAAA [Mat - Exclusion 4 - Mayanna - D119]
apparent KD of MS2 coat protein [3]: 49.8 nM
apparent KD of MS2 coat protein [4]: 47.3 nM

GAAAAGUGAGGAUAUACAUGAGGAUCACCCAUGUGUAUAAAAAAUUACACAAAAGAAAGUAGAAGGCACUAAAG [Mat - Exclusion 3 - Mayanna mod - D113]
apparent KD of MS2 coat protein [3]: 26.5 nM
apparent KD of MS2 coat protein [4]: 17.7 nM

GAAAGUGGAGGAUAUACAUGAGGAUCACCCAUGUGUAAAAAUAAAUACACAAAAGAAAGUAGAAGGCCACAAAG [Mat - Exclusion 3 - Mayanna mod - D118]
apparent KD of MS2 coat protein [3]: 125 nM
apparent KD of MS2 coat protein [4]: 30.6 nM

GAAGAACAUGAGGAUCACCCAUGUCAGGAUAUGCGCAAGGGAAUAAUAACUUGCGGAAGCAGAAGGGACAAGAA [Ex 1 May 50]
apparent KD of MS2 coat protein [3]: 35.9 nM
apparent KD of MS2 coat protein [4]: 18.9 nM

GAAUGACUAGGAUAUACAUGAGGAUCACCCAUGUGUUAAAAUAAAUACACAAAAGAAAGUAGAAGGAGUCAAAG [Mat - Exclusion 3 - Mayanna mod - D126]
apparent KD of MS2 coat protein [3]: 50.3 nM
apparent KD of MS2 coat protein [4]: 21 nM

GAUAGGCGAGGAUAUACAUGAGGAUCACCCAUGUAAGUAAGCCUGGCUGAAACUGAAUGUAGAAGGCGCAAAUU [Mat - Exclusion 3 - Neo mod - D70]
apparent KD of MS2 coat protein [3]: 67.7 nM
apparent KD of MS2 coat protein [4]: 17.8 nM

GCUGGCGAAGGAUAUACAUGAGGAUCACCCAUGUGAGAGAAAAAAGUGAGAAAGAAAAGUAGAAGGUCGUUAGG [salish99-ex3-96]
apparent KD of MS2 coat protein [3]: 70.4 nM
apparent KD of MS2 coat protein [4]: 31.7 nM

GCUGUGGAAGGAUAUACAUGAGGAUCACCCAUGUGAGAGAAAAAAGUGAGAAAGAAAAGUAGAAGGUCCGUAGG [salish99-ex3-98]
apparent KD of MS2 coat protein [3]: 66 nM
apparent KD of MS2 coat protein [4]: 40.3 nM

GCUUGGCAAGGAUAUACAUGAGGAUCACCCAUGUGAGAGAAAAAAGUGAGAAAGAAAAGUAGAAGGUGCUGAGG [salish99-ex3-109]
apparent KD of MS2 coat protein [3]: 82.2 nM
apparent KD of MS2 coat protein [4]: 42.6 nM

GGAAAACAUGAGGAUCACCCAUGUAAGGAUAUGCUAGGGAGGGAAAAAAUUUCGCCAGGCAGAAGGUACUAAAG [Janelle Amethyst 18 Mod 6 - Jieux - Exclusion 1]
apparent KD of MS2 coat protein [3]: 44.7 nM
apparent KD of MS2 coat protein [4]: 23.5 nM

GGAAAACAUGAGGAUCACCCAUGUCAGGAUAUGUGAAAAAAAAAAAAAAGAAAAGAAAACAGAAGGGACAAAAG [amethyst 6]
apparent KD of MS2 coat protein [3]: 23.2 nM
apparent KD of MS2 coat protein [4]: 80.8 nM

GGUUGGCGAGGAUAUACAUGAGGAUCACCCAUGUGAGAGAAAAAAGUGAGUAAGAAAAGUAGAAGGCGCUGACG [salish99-ex3-33]
apparent KD of MS2 coat protein [3]: 4710 nM
apparent KD of MS2 coat protein [4]: 49.9 nM

GGUUGGCGAGGAUAUACAUGAGGAUCACCCAUGUGAGAGAAAAAAGUGAUAAAGAAAAGUAGAAGGCGCUGACG [salish99-ex3-32]
apparent KD of MS2 coat protein [3]: 2470 nM
apparent KD of MS2 coat protein [4]: 120 nM

GGUUGUCGAGGAUAUACAUGAGGAUCACCCAUGUGAGAGAAAAAAGUGAGAAAGAAAAGUAGAAGGUGGUGACG [salish99-ex3-71]
apparent KD of MS2 coat protein [3]: 92.9 nM
apparent KD of MS2 coat protein [4]: 57.6 nM

GUCCUACAUGAGGAUCACCCAUGUCAGGAUAUGCACCGGUUGCUUUAGACCGGUAAAGGCAGAAGGGACGGGUG [Orzadima]
apparent KD of MS2 coat protein [3]: 19.8 nM
apparent KD of MS2 coat protein [4]: 23.2 nM

UAAAAACAUGAGGAUCACCCAUGUCAGGAUAUGUGCUUAAUAAAAAAAUAAAUAACAAGCAGAAGGGACAAUAA [JR_Exc001_Sub201]
apparent KD of MS2 coat protein [3]: 34.4 nM
apparent KD of MS2 coat protein [4]: 35 nM

UAAAAUAAAGGAUAUAAAACAGAGGAUAUACAUAAAUAAAAACAUGAGGAUCACCCAUGUAGAAGGCUGAAAAU [Meechl Ex2 R2 m1]
apparent KD of MS2 coat protein [3]: 28.4 nM
apparent KD of MS2 coat protein [4]: 29 nM

UAAAGACAUGAGGAUCACCCAUGUGAGGAUAUCGGUGACUAUAAAAAAAAAUAGUCACCGAGAAGGCACAGAAA [JR_Exc001_Sub301]
apparent KD of MS2 coat protein [3]: 117 nM
apparent KD of MS2 coat protein [4]: 43.2 nM

UACAUACAUGAGGAUCACCCAUGUCAGGAUAUGUGCUCAGUGAAAAACAAAGAAACAAGCAGAAGGGACACUAA [JR_Exc001_Sub203]
apparent KD of MS2 coat protein [3]: 37.5 nM
apparent KD of MS2 coat protein [4]: 41.8 nM

UAGAACCUAGGAUAUACUUGGGAAACUAAUGCAAAGAUAUAACAUGAGGAUCACCCAUGUAGAAGGAGGAGUAA [JR_Exc002_Sub019]
apparent KD of MS2 coat protein [3]: 132 nM
apparent KD of MS2 coat protein [4]: 84.5 nM

UAUAGACAUGAGGAUCACCCAUGUGAGGAUAUCAGUGACUACAGGACAUCACGUACAAUGAGAAGGCACAGAAA [JR_Exc001_Sub015]
apparent KD of MS2 coat protein [3]: 45.2 nM
apparent KD of MS2 coat protein [4]: 34.7 nM

UCGAUGCGAGGAUAUACUAAGGCAACUACUGCAGCUCAAAAACAUGAGGAUCACCCAUGUAGAAGGCGCAUAUA [JR_Exc002_Sub304]
apparent KD of MS2 coat protein [3]: 18.1 nM
apparent KD of MS2 coat protein [4]: 19.6 nM

UUAGAACAUGAGGAUCACCCAUGUGAGGAUAUGCAAUACUAGCGACAAGAUCGUUAUAGCAGAAGGCACGUAGU [JR_EXc001_Sub807]
apparent KD of MS2 coat protein [3]: 64.5 nM
apparent KD of MS2 coat protein [4]: 38.6 nM

UUUAUGUGAGGAUAUACGAAUAGUAAGUAAGUAUUACAGACGUAGAAGGCACAUGAGGAUCACCCAUGUGAAUA [JR_Exc004_Sub307]
apparent KD of MS2 coat protein [3]: 58.8 nM
apparent KD of MS2 coat protein [4]: 32.7 nM
